Source: article PMC9482650, “Quantitative fragmentomics allow affinity mapping of interactomes” (Nature Communications, 2022)
Blank lines part the entries; values can stand above or below the binder they belong to.

Tests used:
Assay in all cases: holdup assay
Parameters in all cases: key: below the threshold = too weak to quantify, mostly under pKd 3.1 to 4
GORASP1, Q9BQQ3 = target: GORASP1, Q9BQQ3
Inadl_2, Q8NI35 = target: Inadl_2, Q8NI35
Inadl_6, Q8NI35 = target: Inadl_6, Q8NI35
GRID2IP_1, A4D2P6 = target: GRID2IP_1, A4D2P6
Chain of GRID2IP_1, A4D2P6 (A4D2P6 1-87): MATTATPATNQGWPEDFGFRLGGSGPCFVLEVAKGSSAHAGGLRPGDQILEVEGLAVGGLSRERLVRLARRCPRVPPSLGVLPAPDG

LIN7C, Q9NUP9 = target: T1, LIN7C, Q9NUP9
T1 sequence (Q9NUP9 88-185, limits assumed, looked up): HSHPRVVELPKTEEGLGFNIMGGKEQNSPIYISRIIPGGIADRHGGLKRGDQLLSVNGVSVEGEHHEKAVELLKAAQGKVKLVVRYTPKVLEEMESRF

TJP3_3, O95049 = target: T2, TJP3_3, O95049
T2 sequence (O95049 375-456, limits assumed, looked up): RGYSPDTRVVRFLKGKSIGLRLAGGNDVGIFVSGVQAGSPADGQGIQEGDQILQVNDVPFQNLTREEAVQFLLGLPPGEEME

SCRIB_2, Q14160 = target: SCRIB_2, Q14160
Chain of SCRIB_2, Q14160 (Q14160 857-960): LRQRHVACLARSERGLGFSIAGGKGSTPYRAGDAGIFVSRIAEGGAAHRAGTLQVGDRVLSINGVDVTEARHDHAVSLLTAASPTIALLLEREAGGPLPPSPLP

HTRA2, O43464 = target: HTRA2, O43464
Chain of HTRA2, O43464 (O43464 355-458): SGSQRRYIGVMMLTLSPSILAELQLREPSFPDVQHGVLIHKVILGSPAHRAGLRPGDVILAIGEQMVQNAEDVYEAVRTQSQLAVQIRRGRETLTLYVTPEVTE

TJP1_3, Q07157 = target: TJP1_3, Q07157
Chain of TJP1_3, Q07157 (Q07157 416-512): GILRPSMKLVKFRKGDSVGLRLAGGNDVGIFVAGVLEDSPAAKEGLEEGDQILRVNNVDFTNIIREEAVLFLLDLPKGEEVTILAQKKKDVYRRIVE

PICK1, Q9NRD5 = target: PICK1, Q9NRD5
Chain of PICK1, Q9NRD5 (Q9NRD5 17-115): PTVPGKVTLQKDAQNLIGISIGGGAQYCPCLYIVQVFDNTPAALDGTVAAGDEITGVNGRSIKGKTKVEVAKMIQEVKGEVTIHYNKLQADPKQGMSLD

Inadl_10, Q8NI35 = target: Inadl_10, Q8NI35
Chain of Inadl_10, Q8NI35 (Q8NI35 1673-1763): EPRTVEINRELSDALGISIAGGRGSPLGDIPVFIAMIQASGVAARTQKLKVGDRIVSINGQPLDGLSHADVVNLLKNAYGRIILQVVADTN

TJP1_2, Q07157 = target: TJP1_2, Q07157
Chain of TJP1_2, Q07157 (Q07157 181-274): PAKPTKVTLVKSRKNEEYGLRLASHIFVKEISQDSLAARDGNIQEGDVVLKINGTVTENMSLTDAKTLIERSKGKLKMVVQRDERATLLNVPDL

Inadl_1, Q8NI35 = target: Inadl_1, Q8NI35
Chain of Inadl_1, Q8NI35 (Q8NI35 113-229): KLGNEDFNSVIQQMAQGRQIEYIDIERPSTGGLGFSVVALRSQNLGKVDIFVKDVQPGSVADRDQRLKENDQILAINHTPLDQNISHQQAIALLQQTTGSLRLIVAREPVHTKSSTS

MAGI3_2, Q5TCQ9 = target: MAGI3_2, Q5TCQ9
Chain of MAGI3_2, Q5TCQ9 (Q5TCQ9 398-503): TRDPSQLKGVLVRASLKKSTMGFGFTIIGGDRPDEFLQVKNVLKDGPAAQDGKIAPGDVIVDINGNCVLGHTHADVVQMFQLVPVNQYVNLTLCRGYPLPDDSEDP

DLG5_1, Q8TDM6 = target: DLG5_1, Q8TDM6
Chain of DLG5_1, Q8TDM6 (Q8TDM6 617-713): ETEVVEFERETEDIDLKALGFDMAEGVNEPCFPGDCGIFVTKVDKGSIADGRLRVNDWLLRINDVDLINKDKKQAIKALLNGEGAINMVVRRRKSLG

SNTB1, Q13884 = target: T3, SNTB1, Q13884
T3 sequence (Q13884 107-205, limits assumed, looked up): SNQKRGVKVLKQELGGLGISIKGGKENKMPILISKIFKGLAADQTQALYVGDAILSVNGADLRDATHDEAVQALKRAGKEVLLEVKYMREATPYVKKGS

LNX1_1, Q8TBB1 = target: LNX1_1, Q8TBB1
Chain of LNX1_1, Q8TBB1 (Q8TBB1 261-371): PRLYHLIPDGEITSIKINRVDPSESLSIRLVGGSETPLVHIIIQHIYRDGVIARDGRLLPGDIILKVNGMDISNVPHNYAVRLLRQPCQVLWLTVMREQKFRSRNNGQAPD

GRIP2_7, Q9C0E4 = target: GRIP2_7, Q9C0E4
Chain of GRIP2_7, Q9C0E4 (Q9C0E4 934-1023): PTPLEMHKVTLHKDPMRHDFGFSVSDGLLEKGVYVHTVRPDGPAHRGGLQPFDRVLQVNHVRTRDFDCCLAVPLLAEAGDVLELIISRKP

DFNB31_3, Q9P202 = target: T4, DFNB31_3, Q9P202
T4 sequence (Q9P202 811-907, limits assumed, looked up): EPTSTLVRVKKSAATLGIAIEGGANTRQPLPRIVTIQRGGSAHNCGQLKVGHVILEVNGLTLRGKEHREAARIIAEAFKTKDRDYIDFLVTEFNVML

DFNB31_2, Q9P202 = target: T5, DFNB31_2, Q9P202
T5 sequence (Q9P202 274-371, limits assumed, looked up): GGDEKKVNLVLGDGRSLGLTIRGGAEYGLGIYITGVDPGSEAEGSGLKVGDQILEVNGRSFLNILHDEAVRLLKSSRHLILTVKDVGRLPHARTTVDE

GRIP1_7, Q9Y3R0 = target: T6, GRIP1_7, Q9Y3R0
T6 sequence (Q9Y3R0 999-1096, limits assumed, looked up): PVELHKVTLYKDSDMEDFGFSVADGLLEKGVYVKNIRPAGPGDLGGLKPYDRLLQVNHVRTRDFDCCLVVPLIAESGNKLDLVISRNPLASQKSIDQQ

NHERF4_1, Q86UT5-2 = target: NHERF4_1, Q86UT5-2
Chain of NHERF4_1, Q86UT5-2 (Q86UT5 other isoform, or with tags, fused parts or gaps): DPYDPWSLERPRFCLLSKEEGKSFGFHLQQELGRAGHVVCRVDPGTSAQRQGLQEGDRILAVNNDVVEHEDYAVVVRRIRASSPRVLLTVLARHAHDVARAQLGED

LNX2_3, Q8N448 = target: T7, LNX2_3, Q8N448
T7 sequence (Q8N448 463-564, limits assumed, looked up): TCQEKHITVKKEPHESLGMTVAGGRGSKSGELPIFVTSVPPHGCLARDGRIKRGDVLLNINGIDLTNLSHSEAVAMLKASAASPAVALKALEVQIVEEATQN

MPDZ_10, O75970 = target: T8, MPDZ_10, O75970
T8 sequence (O75970 1624-1722, limits assumed, looked up): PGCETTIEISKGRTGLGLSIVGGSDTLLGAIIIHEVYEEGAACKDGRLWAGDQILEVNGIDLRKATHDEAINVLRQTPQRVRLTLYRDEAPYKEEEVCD

CASK, O14936 = target: CASK, O14936
Chain of CASK, O14936 (O14936 487-570): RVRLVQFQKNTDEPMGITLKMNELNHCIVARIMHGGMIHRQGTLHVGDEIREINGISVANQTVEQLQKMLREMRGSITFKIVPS

GRID2IP_2, A4D2P6 = target: GRID2IP_2, A4D2P6
Chain of GRID2IP_2, A4D2P6 (A4D2P6 272-370): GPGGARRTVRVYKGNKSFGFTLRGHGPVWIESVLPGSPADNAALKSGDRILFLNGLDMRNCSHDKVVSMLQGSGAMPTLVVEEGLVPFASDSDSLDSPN

MPP7, Q5T2T1 = target: T9, MPP7, Q5T2T1
T9 sequence (Q5T2T1 134-230, limits assumed, looked up): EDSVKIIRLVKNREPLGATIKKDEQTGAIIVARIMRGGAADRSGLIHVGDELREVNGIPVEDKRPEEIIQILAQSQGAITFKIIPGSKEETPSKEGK

GRIP2_5, Q9C0E4 = target: GRIP2_5, Q9C0E4
Chain of GRIP2_5, Q9C0E4 (Q9C0E4 544-642): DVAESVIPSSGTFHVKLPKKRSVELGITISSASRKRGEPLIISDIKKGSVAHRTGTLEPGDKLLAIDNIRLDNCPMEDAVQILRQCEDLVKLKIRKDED

[1] = plain residues with an end cap or a label only (N-terminal biotin on a linker: ttds)
[2] = plain residues with an end cap or a label only (N-terminal biotin on a linker: ahx)
[3] = plain residues with an end cap or a label only (N-terminal biotin on a linker: ado-ado)

Chain of Inadl_2, Q8NI35 (Q8NI35 238-335): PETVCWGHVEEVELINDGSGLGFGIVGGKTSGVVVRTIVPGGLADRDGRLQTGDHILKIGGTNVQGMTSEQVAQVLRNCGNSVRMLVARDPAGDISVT
Chain of GORASP1, Q9BQQ3 (Q9BQQ3 1-208): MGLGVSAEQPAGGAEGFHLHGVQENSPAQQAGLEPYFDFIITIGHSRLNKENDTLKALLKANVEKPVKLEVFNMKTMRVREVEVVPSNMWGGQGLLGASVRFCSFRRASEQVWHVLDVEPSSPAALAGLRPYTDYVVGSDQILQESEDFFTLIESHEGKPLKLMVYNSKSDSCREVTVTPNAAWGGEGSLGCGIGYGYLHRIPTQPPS
Chain of Inadl_6, Q8NI35 (Q8NI35 1058-1167): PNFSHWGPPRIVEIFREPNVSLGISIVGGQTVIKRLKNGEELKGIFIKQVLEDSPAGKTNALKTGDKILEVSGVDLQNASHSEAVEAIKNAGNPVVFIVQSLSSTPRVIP

pKd (GORASP1, Q9BQQ3; [1]): below the threshold
pKd (Inadl_2, Q8NI35; [1]): below the threshold
pKd (Inadl_6, Q8NI35; [1]): 3.6
pKd (GRID2IP_1, A4D2P6; [1]): below the threshold
pKd (LIN7C, Q9NUP9; [1]): 4.4
pKd (TJP3_3, O95049; [1]): below the threshold
pKd (SCRIB_2, Q14160; [1]): 3.54
pKd (HTRA2, O43464; [1]): below the threshold
pKd (TJP1_3, Q07157; [1]): below the threshold
pKd (PICK1, Q9NRD5; [1]): below the threshold
pKd (Inadl_10, Q8NI35; [1]): below the threshold
pKd (TJP1_2, Q07157; [1]): below the threshold
pKd (Inadl_1, Q8NI35; [1]): below the threshold
pKd (MAGI3_2, Q5TCQ9; [1]): 5.92
pKd (DLG5_1, Q8TDM6; [1]): below the threshold
pKd (SNTB1, Q13884; [1]): 4.56
pKd (LNX1_1, Q8TBB1; [1]): below the threshold
pKd (GRIP2_7, Q9C0E4; [1]): below the threshold
pKd (DFNB31_3, Q9P202; [1]): below the threshold
pKd (DFNB31_2, Q9P202; [1]): below the threshold
pKd (GRIP1_7, Q9Y3R0; [1]): below the threshold
pKd (NHERF4_1, Q86UT5-2; [1]): below the threshold
pKd (LNX2_3, Q8N448; [1]): below the threshold
pKd (MPDZ_10, O75970; [1]): below the threshold
pKd (CASK, O14936; [1]): below the threshold
pKd (GRID2IP_2, A4D2P6; [1]): 3.56
pKd (MPP7, Q5T2T1; [1]): below the threshold
pKd (GRIP2_5, Q9C0E4; [1]): below the threshold
Binder: SGGKRKETLV [NET1, Q7Z628]

pKd (GORASP1, Q9BQQ3; [2]): below the threshold
pKd (Inadl_2, Q8NI35; [2]): below the threshold
pKd (Inadl_6, Q8NI35; [2]): 3.59
pKd (GRID2IP_1, A4D2P6; [2]): below the threshold
pKd (LIN7C, Q9NUP9; [2]): below the threshold
pKd (TJP3_3, O95049; [2]): below the threshold
pKd (SCRIB_2, Q14160; [2]): below the threshold
pKd (HTRA2, O43464; [2]): below the threshold
pKd (TJP1_3, Q07157; [2]): below the threshold
pKd (PICK1, Q9NRD5; [2]): below the threshold
pKd (Inadl_10, Q8NI35; [2]): below the threshold
pKd (TJP1_2, Q07157; [2]): below the threshold
pKd (Inadl_1, Q8NI35; [2]): below the threshold
pKd (MAGI3_2, Q5TCQ9; [2]): 3.61
pKd (DLG5_1, Q8TDM6; [2]): below the threshold
pKd (SNTB1, Q13884; [2]): 3.71
pKd (LNX1_1, Q8TBB1; [2]): below the threshold
pKd (GRIP2_7, Q9C0E4; [2]): below the threshold
pKd (DFNB31_3, Q9P202; [2]): below the threshold
pKd (DFNB31_2, Q9P202; [2]): below the threshold
pKd (GRIP1_7, Q9Y3R0; [2]): below the threshold
pKd (NHERF4_1, Q86UT5-2; [2]): below the threshold
pKd (LNX2_3, Q8N448; [2]): below the threshold
pKd (MPDZ_10, O75970; [2]): below the threshold
pKd (CASK, O14936; [2]): below the threshold
pKd (GRID2IP_2, A4D2P6; [2]): 4.19
pKd (MPP7, Q5T2T1; [2]): below the threshold
pKd (GRIP2_5, Q9C0E4; [2]): below the threshold
Binder: ADENEQVSAV [RAPGEF6, Q8TEU7]

pKd (GORASP1, Q9BQQ3; [3]): below the threshold
pKd (Inadl_2, Q8NI35; [3]): below the threshold
pKd (Inadl_6, Q8NI35; [3]): below the threshold
pKd (GRID2IP_1, A4D2P6; [3]): below the threshold
pKd (LIN7C, Q9NUP9; [3]): below the threshold
pKd (TJP3_3, O95049; [3]): below the threshold
pKd (SCRIB_2, Q14160; [3]): below the threshold
pKd (HTRA2, O43464; [3]): below the threshold
pKd (TJP1_3, Q07157; [3]): below the threshold
pKd (PICK1, Q9NRD5; [3]): 4.13
pKd (Inadl_10, Q8NI35; [3]): below the threshold
pKd (TJP1_2, Q07157; [3]): 3.87
pKd (Inadl_1, Q8NI35; [3]): below the threshold
pKd (MAGI3_2, Q5TCQ9; [3]): below the threshold
pKd (DLG5_1, Q8TDM6; [3]): below the threshold
pKd (SNTB1, Q13884; [3]): below the threshold
pKd (LNX1_1, Q8TBB1; [3]): below the threshold
pKd (GRIP2_7, Q9C0E4; [3]): below the threshold
pKd (DFNB31_3, Q9P202; [3]): below the threshold
pKd (DFNB31_2, Q9P202; [3]): below the threshold
pKd (GRIP1_7, Q9Y3R0; [3]): below the threshold
pKd (NHERF4_1, Q86UT5-2; [3]): below the threshold
pKd (LNX2_3, Q8N448; [3]): below the threshold
pKd (MPDZ_10, O75970; [3]): below the threshold
pKd (CASK, O14936; [3]): below the threshold
pKd (GRID2IP_2, A4D2P6; [3]): below the threshold
pKd (MPP7, Q5T2T1; [3]): 4
pKd (GRIP2_5, Q9C0E4; [3]): below the threshold
Binder: ELKAEDEVQI [DCHS2, Q6V1P9]
